In the experiment the target is bacteriophage λ holin S105, allele S105τ94 (internal G2H6G2 tag) (bacteriophage λ). In words: cryo-EM structure.

As a reminder, the stoichiometry N is the number of molecules, sites or subunits per partner or assembly. The substance “bacteriophage λ holin S105, allele S105τ94 (internal G2H6G2 tag) (natural protein)” had a stoichiometry N of 72.
